# Source: the DeepSol protein solubility set
# Assay: soluble on expression in E. coli; label from the status in PepcDB or PDB records
row,Sequence,soluble on expression in E. coli
1,MLLDEKALVTLQKLGLTYYGARVYITLVSLGSSDATELSIESEVPRTKIYNVLKRLEAEKWIAVEHTRPIIYTAKYPKDILKEKRVAFNSEINEVSNQLSEVYDKVIDNEVPKVWLLRGMNNITAKTINMIKRAKRDITLLGALYSENEIEQLKEELSYATKKGLHVRVISRQSIKLNNGELDIIKNLSSVIPQIKIGGPEFSKFVIIDDKELLILFSKVEDNILDIDSTIAIWIPNVSIASYQASIFNGIWNGYCQVDRC,not soluble
2,MTRSALKPFKNKRVMVTGRIQRVLFKNYLDRHSTFKPNVRILLKDVFVSGVSIDHLWLYETNKYYALAMELIHQRVKFSANVVPYYKINRNNNLFVQDYGIKRKGRLITEEAYNQNNQYQDKIYEKLPDIDFRLEDFYSKENLEHHHHHH,not soluble
3,MGSDKIHHHHHHMEITIFGKGNMGQAIGHNFEIAGHEVTYYGSKDQATTLGEIVIMAVPYPALAALAKQYATQLKGKIVVDITNPLNFDTWDDLVVPADSSAAQELQQQLPDSQVLKAFNTTFAATLQSGQVNGKEPTTVLVAGNDDSAKQRFTRALADSPLEVKDAGKLKRARELEAMGFMQMTLAASEQIGWTGGFAVVK,not soluble
4,MSYYHHHHHHDYDIPTTENLTFQGAMEPTSSLNRGDRKKGSSLVTGSEVQSQSNGASCFITTDSEKSLVSRQASQVEQIELRTYVFLDSLQPQLAAYMGTVSRGFLPIPGDSCLWMEVSPGMAVHRVTDIALKASNVRLGQMIVERAFGSLALYHKDQSTVLHSGDVVLDAIGSEVRKRTKPSTSWTEVICAITPDHAVLINRQNRSGSMIQSGMSMFILETEPAGYVLKAANEAEKSANITIIDVKAVGAFGRLTLAGKEGDVEEAAAAAIRAIDQISNY,soluble
5,MGIMPRKVLAIKNFKERFDLLPKLKGVIAEKQPDILVVVGNILKNEALEKEYERAHLARREPNRKVIHENEHYIIETLDKFFREIGELGVKTFVVPGKNDAPLKIFLRAAYEAETAYPNIRVLHEGFAGWRGEFEVIGFGGLLTEHEFEEDFVLKYPRWYVEYILKFVNELKPRRLVTIFYTPPIGEFVDRTPEDPKHHGSAVVNTIIKSLNPEVAIVGHVGKGHELVGNTIVVNPGEFEEGRYAFLDLTQHKIKLEQFS,soluble
6,MGSDKIHHHHHHVAKPKTVYICSECGGQSPKWAGQCPSCNAWNTLVESVAEAPSTHRFQSLAKSAPVRRLADIEASDVPRFTTGVSEFDRVLGGGLVPGGVVLIGGDPGIGKSTLLLQSLAEIAADKRALYISGEESAAQIALRAQRLSLLEPGSRASELQLLAEIQLEKIQATIAEQRPDVAVIDSIQTVYSDALTSAPGSVAQVRECAAQLTRIAKQSGTTIIMVGHVTKEGALAGPRVLEHIVDTVLYFEGDTHSSYRLVRAIKNRFGAVNELGVFAMTERGLRGVANPSALFLSQHEQSVAGSCVLVTQEGTRPLLVEVQALVDAANAPNPRRLAVGLEQNRLAMLLAVLHRHAGIACFDQDVFLNAVGGVKITEPAADLAVLLAIHSSMRNKPLPKGLVVFGEVGLAGEIRPSPRGQERLKEAAKLGFSVAVIPRANAPKQPIEGLQVVAVERIEQAIDRVRTLE,not soluble
7,MGSSHHHHHHSSGRENLYFQGHMTLTSIGPANRMARSAETHPLTWRLREDAQPVWLEEYQSKDGYAAARKALTQMAQDDIVQTVKDSGLKGRGGAGFPTGVKWGLMPKDESLNIRYLLCNADEMEPNTWKDRMLMEQLPHLLVEGMLISARALKAYRGYIFLRGEYVDAARNLNRAIDEAKAAGLLGKNILGSGFDFELFVHTGAGRYICGEETALINSLEGRRANPRSKPPFPAAVGVWGKPTCVNNVETLCNVPAIVGNGVDWYKTLARPGSEDMGTKLMGFSGKVKNPGLWELPFGVSARELFEDYAGGMRDGFQLKAWQPGGAGTGFLLPEHLDAQMFAGGIAKVGTRMGTGLAMAVDDSINMVSLLRNMEEFFARESCGWCTPCRDGLPWSVKLLRALERGEGQPGDLETLEQLVNFLGPGKTFCAHAPGAVEPLGSALKYFRAEFEAGISRQPSAAPRPATVGA,soluble
8,MGSDKIHHHHHHMQTDKIFYSLFQAFTSIFFAIIGEADINPSTYEFVSVELKETAFRIDGVFKPVNETTEEPLYFVEVQFQLDPKFYRRFFAEIFLYLRQNPSVNFWRAVVIYPQRIIEPDDQQPYRSILDSSQIQRIYLDELGTANENSLQLAIMQLIIASEAIAIDQGRQLIIQARQELTDEANKKQIVELIETILLYKFTNLSREEVAAMLGIDDEFKKTRMYQSIKEDGLEEGRQEGRQQGIQEGRQEGRLQAKLEAIPRLLALGLSVEQIASALDLSIEQVQQVTGN,not soluble
9,MTGSQKLILTGRPFLHHQGIINQVSTVTKVIHHELEVAASADDIWTVYSWPGLAKHLPDLLPGAFEKLEIIGDGGVGTILDMTFVPGEFPHEYKEKFILVDNEHRLKKVQMIEGGYLDLGVTYYMDTIHVVPTGKDSCVIKSSTEYHVKPEFVKIVEPLITTGPLAAMADAISKLVLEHKSKSNSDEIEAAIITVHHHHHH,soluble
10,MSLRASTVKQHAFGLLIPELGQTEIFEPICQGMVAAQEAHNHVLIWGRSLAGSETTEADAKDVCARLISNRVSGVFFAPIEANPQKDAINRIISTMLSDAKIPIVLLDRDIVDYPQRSKFDVVGIDNRRAGCVATQHLIDAGCRRIGFIGRPHLAPSCVARCNGYRETVSNSSIPLAPTFAERLDPSDPILVGKVMDRHKPDGIVCSNDRTAALLMRTFATLKIAVPDQVRLVAFDDVKYASLVTVPLTTIHQPCDQLGAAAIQAMVQRIESPDMPPRDILVDFHLVVRESCGARMAREGHHHHHH,soluble
11,MRGSHHHHHHGSEEASSTGRNFNVEKINGEWHTIILASDKREKIEDNGNFRLFLEQIHVLEKSLVLKFHGRVRLLNNWDCSELSMVADKTEKAGEYSVTYDGFNTFTIPKTDYDNFLMAHLINEKDGETFQLMGLYGREPDLSSDIKERFAQLCEEHGILRENIIDLSNANRCLQARE,soluble
12,MSTKPAAAKTKPSCSEGGDLRVETENGETFITATQRADGTWRKARRVKGGYIPQDEQPKYQNKMQLEATNGRSSVPAGVNPRAMASGSSRKPVSAIKANVCITPQDHFQKKIDLTKKKIEDIEGMESRIASGELVPQPNQVKKIARKQEYLDEIEKLTLEMKKL,not soluble
13,MGYASKLALKICLASLCLFSALGAEHLEQKRNYIYKGEEAYNNKEYERAASFYKSAIKNGEPLAYVLLGIMYENGRGVPKDEKKAAEYFQKAVDNDIPRGYNNLGVMYKEGRGVPKDEKKAVEYFRIATEKGYTNAYINLGIMYMEGRGVPSNYVKATECFRKAMHKGNVEAYILLGDIYYSGNDQLGIEPDKDKAIVYYKMAADMSSSRAYEGLAESYQYGLGVEKDKKKAEEYMQKACDFDIDKNCKKKNTSSRLEHHHHHH,soluble
14,MELISVTKDNLEQEHICCAISNNKDCQVLSKKNWLNEQFEDGLVFLKGNVRGKCFIEYMPAEKAWAPVEADGYMYINCLWVSGQFKGQGYSNLLLEECIRDSREKGRLGLVVLTSKKKMPYLSDPKFLGYKGFIRADSAEPYFELFYLPFEADAPKPQFKEQVRQPRTEENGFVLYYTRQCPFTAKYVPLIESAAEENNIPFKAVLFKTSGEARNAPAPFTTYSLFYNGRFITNEILSEKRFEKILEAEGLG,not soluble
15,MGSDKIHHHHHHGCSDDFKSGLRLDGDVWVNSIRLDEYAGTVDYQNKAIVVGVPYDYDITRMVVTEMNLSEGAKASIAIGETIDFSLPVSLTVKNGDVQMSYTITVKRDEAKILTFKLNDTYVGKVDQLSKTISVVVPLTVDITQLKGTFTVTDGATVTPASGSIQDFTNPVTYTATYRSAVTPYVVTVTQGNVIPTAFVGTASSVSLLTSPEEKAAAQWMMDNVSMSEYISFKDVVDGKVDLGKYTAIWWHFHADNGDNPPLPDDAKAAAEKFKVYYQNGGNLLLTRYATFYIANLGIAKDERVPNNSWGGNEDSPEITSAPWSFLITGSESHPLFQDLRWKDGDKSTVYTCDAGYAITNSTAQWHIGTDWGGYDDLNAWRNLTGGIDLAHGGDGAVVIAEFEPRSNSGRTLCIGSGCYDWYGKGVDASADYYHYNVEQMTLNAINYLCK,not soluble
16,MGSDKIHHHHHHMRLITFDASYDPIAEESKTVRVYVFEPEKIERNLIFLHGIGNGNIPYLLWFGEKFREYNIKTWFLILPYHEKRAPENWSGGEPFYHSSPSFCVKRFDEAVQDVIDLVDVVKRDNDKPISLMGFSFGGMITTIALAREKRIEKGVICCSGGDWRWINWYSPYTERLRELYRKNGNEYGCRSEKDCIKNRRNAPEIIKSFNSIEDIRKKPPVGCYFYDPASFAPFVDQKVLFFWALFDHVIPYQSYACLHKLLKNKKTVYLPSGHKGSYFFRRYIAKRVVRFLIDDE,not soluble
17,GPGSMFYKMKLERNIKVEPHLLERTLHRHLEEYLRKAVEGTPLHLSLGNALRSGLARTNQNSSAVIIAVLDILNTSSLEGRVLDDGSVSFFVKYEGLVFKLHRGEVIDVIVSSVEREGWWGDVMGVGRMYISRGQMGNEWVYESDGMRGIWITKDGARSVKEGEIVRVRVVAETPQSEGVLAVGSMVGNYLGPL,not soluble
18,MGSDKIHHHHHHMRPTENGVLHLRKKFVASLLAVAIASTTACAQLGISKEQAGTVIGGLAGVAIGSTMGSGNGKIAAALIAGGIGAYVGNRIGHMLDEKDQQALALRTQEVLSQQQTTASAQPVTWKSDHSGATAQIVPGKEYTKTKQVEVKRAPKIQAVPSMKLINEPYVTISDNLNVRAAPNQAGEKVGSLKNHTEFTAVGSTGDWILVGRKGVTVGYVHKNYVEPKAQAVAKRVTPAVNLDELDVAASKETQGFDLDSVQSLPTQTVAAEAACRPVTVSLKSQSGQTEQEQNTFCKQANGTWELI,not soluble
19,MGHHHHHHSHAKGKSAGLVKATGRNMEQFQVSVSVAPNAKITFELVYEELLKRRLGVYELLLKVRPQQLVKHLQMDIHIFEPQGISFLETESTFMTNQLVDALTTWQNKTKAHIRFKPTLSQQQKSPEQQETVLDGNLIIRYDVDRAISGGSIQIENGYFVHYFAPEGLTTMPKNVVFVIDKSGSMSGRKIQQTREALIKILDDLSPRDQFNLIVFSTEATQWRPSLVPASAENVNKARSFAAGIQALGGTNINDAMLMAVQLLDSSNQEERLPEGSVSLIILLTDGDPTVGETNPR,not soluble
20,MGSDKIHHHHHHMIQLHVYEEIVNFKEEVTPFLEKNEQENNLILGVLQMVHQPIFMGIAKQGEEIAVVFLQTEEKKQIIVATSEISGVAIKELAKELTKIYPDIPGLIGDKKVVQHLAEEIAVLENKKTNVVMEQGVYELKEVKKKPSEDGFFREVSSDELTLIEEWIYQFCEDVNLPTTKEEAKQTAHTLITNHRLFGLEVDGKLVSVAAKTRPTKNNITVNFVYTPKEARKKGYASNCVAALSQRMLDEGYKTTTLYTDLANPTSNKIYQEIGYEQIAESVLIFLEK,not soluble
21,MAALASSLIRQKREVREPGGSRPVSAQRRVCPRGTKSLCQKQLLILLSKVRLCGGRPARPDRGPEPQLKGIVTKLFCRQGFYLQANPDGSIQGTPEDTSSFTHFNLIPVGLRVVTIQSAKLGHYMAMNAEGLLYSSPHFTAECRFKECVFENYYVLYASALYRQRRSGRAWYLGLDKEGQVMKGNRVKKTKAAAHFLPKLLEVAMYQEPSLHSVPEASPSSPPAPLEHHHHHH,not soluble
22,RKEDHARLRALNGLLYKALTDLLCTPEVSQELYDLNVELSKVSLTPDFSACRAYWKTTLSAEQNAHMEAVLQRSAAHMRHLLMSQQTLRNVPPIVFVQDKGNAALAELDQLLAVAD,soluble
23,MTELKLIHIFTDGSCLGNPGPGGYGIVMKYKGHTKEMSGGFSLTTNNRMELLAPIVALEALKEPCKIILTSDSQYVRQGIMTWIHGWKKNGWMTSNGTPVKNVDLWKRLDKAAQLHQIDWRWVKGHAGHAENERCHQLARAAAEANPTQIDTGYQAES,soluble
